Source: patent US7763426B2, “Probes and methods for detection of Escheridia coli and antibiotic resistance” (priority 2004, dated 2010)
“Also recorded” adds a separate entry of the source. {Fluorescein} = fluorescein label (binding site for anti-fluorescein Fab-HRP); {Biotin} = biotin (capture probe anchor)

Columns and labels:
bacterial 16S rRNA = assay: Clinical validity study: UTI Chip on blinded clinical urine specimens; type: binding
Protocol: Amperometric detection of bacterial 16S rRNA. An overview of the electrochemical sensor detection strategy is presented in panel C of FIG. 1. One ml of bacteria in Luria broth, inoculated clean urine, or clinical urine samples was centrifuged at 10,000×g for 5 min. The supernatant was discarded and the bacteria were lysed by resuspension of the pellet in 10 μl of 1 M NaOH and incubation at room temperature for 5 min. In some experiments, addition of 1M NaOH was preceded by resuspension of the bacterial pellet in 10 μl of 0.1% Triton X-100, 2 mM EDTA, and 1 mg/ml lysozyme (Sigma) in 20 mM Tris-HCl, pH 8.0, and incubation at room temperature for 5 min. 50 μl of the detector probe (0.25 μM) in 2.5% bovine serum albumin (Sigma, St. Louis, Mo.) 1 M phosphate buffer, pH 7.4, were added to the bacterial lysate and incubated for 10 min at 65° C. to allow target-probe hybridization. 4 μl of the bacterial lysate/detector probe mixture was deposited on each of the working electrodes in the sensor array and incubated for 15 min at 65° C. in a humidified chamber. After washing and drying, 4 μl of 0.5 U/ml anti-fluorescein horseradish peroxidase (HRP) Fab fragments (Roche, diluted in 0.5% casein in 10 mM phosphate buffered saline, pH 7.4) were deposited on each of the working electrodes for 15 min. After washing and drying, a prefabricated plastic well manifold (GeneFluidics, Monterey Park, Calif.) was bonded to the sensor array. The sensor array was put into the chip reader (FIG. 18) and 50 μl of 3,3′,5,5′-tetramethylbenzidine (TMB), H2O2 solution (K-Blue Low Activity TMB Substrate, Neogen, Lexington, Ky.) was placed on each of the sensors in the array so as to cover all three electrodes of each sensor. Electrochemical measurements are immediately and simultaneously taken for all 16 sensors. For each array, negative control (NC) sensors were tested including the UNI capture probe, detector probe, and 2.5% bovine serum albumin (Sigma, St, Louis, Mo.) in 1 M phosphate buffer, pH 7.4, instead of bacterial lysate. The entire assay protocol was completed within 45 min from the time when bacterial lysis was commenced. Amperometric current vs. time was measured using a multichannel potentiostat (GeneFluidics). The voltage was fixed at −200 mV (vs. reference), and the electroreduction current was measured at 60 s after the HRP redox reaction reached steady state.
Clinical validity study design. Clinical urine specimens were received from routine urine cultures collected from inpatients and outpatients and submitted to the UCLA Clinical Microbiology Laboratory. Routine plating on tripticase soy agar with 5% sheep blood was performed on each specimen for phenotypic identification and colony counting while an aliquot of each specimen was held at 4° C. overnight. On the day after plating, specimens were selected for inclusion in the study on the basis of a rapid indole test for the purpose of including uropathogens other than Escherichia coli in approximately one-half of the specimens. The other half of the specimens were divided between E. coli-containing specimens and specimens determined to have ““no significant growth” or no growth” (see definitions below). Because most UTIs involve a single uropathogen, specimens determined by the clinical microbiology laboratory to have more than one organism present were excluded. Blinded specimens selected for inclusion in the study were stripped of patient identifiers and any microbiological data before delivery to the research laboratory for testing with the electrochemical sensor array.
Experiments were performed on all specimens using the 16-sensor array ‘UTI Chip’, in which the UNI, EB, EC, PM, KE, PA, and EF capture probes (defined in Tables 1 and 2) were tested in duplicate. The two remaining sensors served as negative controls (including capture and detector probes without bacterial lysate). […]

[1] = system: 16S rRNA in lysates of uropathogens; assay: Species specificity of uropathogen probe pairs with the electrochemical sensor array (Example 1); type: binding; settings: probe pairs of Table 1
[2] = specimens with Enterobacter aerogenes
[3] = specimens with Enterobacter cloacae
[4] = specimens with Klebsiella pneumoniae
[5] = specimens with Escherichia coli
[6] = No Significant Growth specimens
[7] = specimens with Citrobacter freundii
[8] = specimens with Citrobacter koseri
[9] = specimens with Enterobacteriaceae
[10] = specimens with Enterococcus species
[11] = specimens with Gram-negative bacteria
[12] = specimens with Proteus mirabilis
[13] = specimens with Pseudomonas aeruginosa
[14] = specimens with Serratia marcescens

Molecule | Mean (range) (bacterial 16S rRNA; [2]) | Positive/Total = Percent (bacterial 16S rRNA; [2]) | Mean (range) (bacterial 16S rRNA; [3]) | Positive/Total = Percent (bacterial 16S rRNA; [3]) | Mean (range) (bacterial 16S rRNA; [4]) | Positive/Total = Percent (bacterial 16S rRNA; [4]) | Species detected [1] | Species not detected [1] | Mean (range) (bacterial 16S rRNA; [5]) | Positive/Total = Percent (bacterial 16S rRNA; [5]) | Positive/Total = Percent (bacterial 16S rRNA; [6]) | Positive/Total = Percent (bacterial 16S rRNA; [10]) | Mean (range) (bacterial 16S rRNA; [12]) | Positive/Total = Percent (bacterial 16S rRNA; [12]) | Positive/Total = Percent (bacterial 16S rRNA; [13]) | Mean (range) (bacterial 16S rRNA; [14]) | Positive/Total = Percent (bacterial 16S rRNA; [14]) | also measured
KE: Klebsiella & Enterobacter spp. probe pair: capture SEQ ID NO: 5, detector SEQ ID NO: 6 (nucleic acid, listed as Enterobacter sp., DNA 1: DNA, 5' {Biotin}, backbone, methylation of C and the base at N not given here; DNA 2: DNA, 5' {Fluorescein}, backbone and methylation of C not given here; Capture probe contains degenerate positions (M, R, Y, H)) DNA 1: GTCAATCGMCRAGGTTATTAACCTYAHCGCCTTCC DNA 2: CTGAAAGTGCTTTACAACCCGAAGGCCTTCTTCAT | 0.86 (0.37-1.26) log10 units over background | KE 5/5 = 100% | 0.34 log10 units over background | KE 1/1 = 100% | 1.16 (0.76-1.50) log10 units over background | KE 7/8 = 88% | Ea, El, Ko, Kp | Cf, Ec, Pa, Pm |  |  |  |  |  |  |  |  |  | 
EC: Escherichia coli probe pair: capture 449 (35 mer) SEQ ID NO: 1, detector 408 (35 mer) SEQ ID NO: 2 (nucleic acid, listed as Escherichia coli, DNA 1: 5' {Biotin}, sugars by position and backbone not given here; DNA 2: 5' {Fluorescein}, sugars by position and backbone not given here) DNA 1: GTCAATGAGCAAAGGTATTAACTTTACTCCCTTCC DNA 2: CTGAAAGTACTTTACAACCCGAAGGCCTTCTTCAT |  |  |  |  |  |  | Ec | Cf, Ea, El Eo, Ko, Kp,; also recorded: Pa, Pm | 1.06 (0.48-1.59) log10 units over background | Ec 26/26 = 100% |  |  |  |  |  |  |  | 
EB: Enterobacteriaceae probe pair: capture SEQ ID NO: 11, detector SEQ ID NO: 12 (nucleic acid, listed as Enterobacter sp., DNA 1: DNA, 5' {Biotin}, backbone and methylation of C not given here; DNA 2: DNA, 5' {Fluorescein}, backbone and methylation of C not given here) DNA 1: CGGACTACGACATACTTTATGAGGTCCGCTTGCTC DNA 2: GAGGTCGCTTCTCTTTGTATATGCCATTGTAGCAC | 1.20 (0.82-1.52) log10 units over background | 5/5 = 100% | 1.08 log10 units over background | 1/1 = 100% | 1.13 (0.46-1.13) log10 units over background | 8/8 = 100% | Cf, Ea, Ec, El, Ko, Kp, Mm, Pm, | Ef, Eo, Pa, Sa, Ss | 1.17 (0.46-1.60) log10 units over background | 25/26 = 96% | 0/8 = 0% | 0/8 = 0% | 1.14 (0.92-1.45) log10 units over background | 3/3 = 100% | 0/1 = 0% | 1.36 log10 units over background | 1/1 = 100% | sensitivity for detection of Gram-negative bacteria in clinical urine specimens (bacterial 16S rRNA): 98%; Positive/Total = Percent (bacterial 16S rRNA; All specimens with bacteria): 46/47 = 98%^2; Positive/Total = Percent (bacterial 16S rRNA; No Growth specimens): 0/12 = 0%; Mean (range) (bacterial 16S rRNA; [7]): 1.32 (1.25-1.38) log10 units over background; Positive/Total = Percent (bacterial 16S rRNA; [7]): 2/2 = 100%; Mean (range) (bacterial 16S rRNA; [8]): 1.29 log10 units over background; Positive/Total = Percent (bacterial 16S rRNA; [8]): 1/1 = 100%; Mean (range) (bacterial 16S rRNA; [9]): 1.17 (0.46-1.60) log10 units over background; Positive/Total = Percent (bacterial 16S rRNA; [9]): 46/47 = 98%; Mean (range) (bacterial 16S rRNA; [11]): 1.17 (0.46-1.60) log10 units over background; Positive/Total = Percent (bacterial 16S rRNA; [11]): 46/47 = 98%^2; Positive/Total = Percent (bacterial 16S rRNA; specimens with Gram-positive bacteria): 0/10 = 0%; Positive/Total = Percent (bacterial 16S rRNA; specimens with Staph. saprophyticus): 0/2 = 0%
EF: Enterococcus spp probe pair: capture SEQ ID NO: 9, detector SEQ ID NO: 10 (nucleic acid, listed as Enterococcus sp., DNA 1: 5' {Biotin}, sugars by position and backbone not given here; DNA 2: 5' {Fluorescein}, sugars by position and backbone not given here) DNA 1: TTGGTGAGCCGTTACCTCACCAACTAGCTAATGCA DNA 2: GTCCATCCATCAGCGACACCCGAAAGCGCCTTTCA |  |  |  |  |  |  | Ef, Eo | Ec, Kp, Pa, Pm, Sa |  |  | Ef 1/8 = 13% | Ef 2/8 = 25% |  |  |  |  |  | Mean (range) (bacterial 16S rRNA; [6]): 0.31 log10 units over background; Mean (range) (bacterial 16S rRNA; [10]): 0.99 (0.63-1.36) log10 units over background
PM: Proteus mirabilis probe pair: capture 202 (35 mer) SEQ ID NO: 3, detector 162 (35 mer) SEQ ID NO: 4 (nucleic acid, listed as Proteus mirabilis, DNA 1: 5' {Biotin}, sugars by position and backbone not given here; DNA 2: 5' {Fluorescein}, sugars by position and backbone not given here) DNA 1: GGGTTCATCCGATAGTGCAAGGTCCGAAGAGCCCC DNA 2: GGTCCGTAGACATTATGCGGTATTAGCCACCGTTT |  |  |  |  |  |  | Pm | Cf, Ea, Ec, El, Eo, Ko, Kp, Pa |  |  |  |  | 0.74 (0.48-0.96) log10 units over background | Pm 3/3 = 100% |  |  |  | 
PA: Pseudomonas aeruginosa probe pair: capture SEQ ID NO: 7, detector SEQ ID NO: 8 (nucleic acid, listed as Pseudomonas aeruginosa, DNA 1: DNA, 5' {Biotin}, backbone and methylation of C not given here; DNA 2: DNA, 5' {Fluorescein}, backbone and methylation of C not given here) DNA 1: CCCACTTTCTCCCTCAGGACGTATGCGGTATTAGC DNA 2: TTCCGGACGTTATCCCCCACTACCAGGCAGATTCC |  |  |  |  |  |  | Pa | Ec, Ef, El, Eo, Kp, Pm |  |  |  |  |  |  | Pa 1/1 = 100% | Pa 0.36 log10 units over background | False Positive | Mean (range) (bacterial 16S rRNA; [13]): 0.55 log10 units over background
